Results reported in CN116284426A (SUNSHINE GUOJIAN PHARMACEUTICAL SHANGHAI CO LTD, dated 2023).

Key:
[1] = molecular target: T1, GUCY2C-Fc蛋白 (human GUCY2C extracellular region fused to human IgG1 Fc) (human, UniProt P25092 24-430); assay: indirect ELISA, GUCY2C-Fc coated at 1 ug/mL, anti-mouse HRP
T1 construct: extracellular domain; Made in HEK-293F with an unspecified N-terminal signal peptide; also called 人GUCY2C-Fc蛋白; not shown: human IgG1 Fc at the C-terminus in place of the 6xHis tag

[2] = molecular target: T2, GUCY2C on tumour cells (CW2, CW2-GCC#1, T84) (human, UniProt P25092 24-1073); assay: flow cytometry on CW2 human colon cancer cells, anti-mouse PE
T2 construct: whole, on cells; Only CW2-GCC#1 is expressly said to express GUCY2C; also called 鸟苷酸环化酶2C; 人结肠癌细胞CW2
T2 sequence (P25092 24-1073): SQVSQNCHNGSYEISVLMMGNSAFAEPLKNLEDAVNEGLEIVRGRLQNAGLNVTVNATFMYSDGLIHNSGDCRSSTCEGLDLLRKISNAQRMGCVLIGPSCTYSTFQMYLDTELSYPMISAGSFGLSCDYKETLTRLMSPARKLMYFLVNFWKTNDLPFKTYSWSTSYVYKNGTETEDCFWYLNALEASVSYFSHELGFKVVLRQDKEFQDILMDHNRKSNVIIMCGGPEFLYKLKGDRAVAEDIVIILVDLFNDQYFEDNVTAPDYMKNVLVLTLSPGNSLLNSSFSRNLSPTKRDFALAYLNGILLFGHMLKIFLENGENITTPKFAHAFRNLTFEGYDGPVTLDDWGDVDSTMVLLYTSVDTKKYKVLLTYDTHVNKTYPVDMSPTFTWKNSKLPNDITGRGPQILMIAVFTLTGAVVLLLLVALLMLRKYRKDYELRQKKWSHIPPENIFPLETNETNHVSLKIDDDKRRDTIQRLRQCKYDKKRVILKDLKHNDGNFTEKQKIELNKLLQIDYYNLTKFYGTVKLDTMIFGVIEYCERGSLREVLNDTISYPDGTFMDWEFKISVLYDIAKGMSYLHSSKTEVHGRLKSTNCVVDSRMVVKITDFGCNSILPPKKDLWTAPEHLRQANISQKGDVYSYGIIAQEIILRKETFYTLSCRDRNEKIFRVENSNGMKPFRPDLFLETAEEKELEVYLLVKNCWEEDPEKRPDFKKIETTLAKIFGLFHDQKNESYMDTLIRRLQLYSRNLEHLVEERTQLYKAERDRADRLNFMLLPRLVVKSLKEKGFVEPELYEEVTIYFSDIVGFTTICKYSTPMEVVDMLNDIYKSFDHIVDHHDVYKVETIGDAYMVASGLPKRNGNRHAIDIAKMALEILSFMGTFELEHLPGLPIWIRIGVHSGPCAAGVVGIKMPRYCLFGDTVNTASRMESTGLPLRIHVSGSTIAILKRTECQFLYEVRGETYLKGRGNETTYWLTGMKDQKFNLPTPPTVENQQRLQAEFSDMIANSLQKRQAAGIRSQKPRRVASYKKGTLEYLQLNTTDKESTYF

[3] = molecular target: T3, GUCY2C-His蛋白 (human GUCY2C extracellular region with C-terminal 6xHis) (human, UniProt P25092 24-430); assay: ELISA, GUCY2C-His coated at 0.1 ug/mL, anti-mouse HRP (Table 4)
T3 construct: extracellular domain; Made in HEK-293F with an unspecified N-terminal signal peptide; also called 人GUCY2C-His蛋白
T3 sequence (P25092 other isoform, or with tags, fused parts or gaps): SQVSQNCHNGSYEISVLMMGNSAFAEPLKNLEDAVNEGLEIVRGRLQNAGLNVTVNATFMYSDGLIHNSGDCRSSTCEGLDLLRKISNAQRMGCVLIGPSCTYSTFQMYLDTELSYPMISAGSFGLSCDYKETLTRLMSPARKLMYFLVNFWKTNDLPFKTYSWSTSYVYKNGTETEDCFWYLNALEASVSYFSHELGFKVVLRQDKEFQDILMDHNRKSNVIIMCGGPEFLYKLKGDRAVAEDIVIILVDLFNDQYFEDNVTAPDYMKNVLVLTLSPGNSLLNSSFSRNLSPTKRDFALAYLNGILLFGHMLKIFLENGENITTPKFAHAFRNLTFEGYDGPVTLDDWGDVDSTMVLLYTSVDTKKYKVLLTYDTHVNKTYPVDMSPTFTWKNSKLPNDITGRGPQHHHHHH

[4] = molecular target: T3, GUCY2C-His蛋白 (human GUCY2C …); assay: ELISA, GUCY2C-His coated, anti-human IgG Fc HRP
[5] = molecular target: T3, GUCY2C-His蛋白 (human GUCY2C …); assay: ELISA, GUCY2C-His coated at 0.1 ug/mL, anti-mouse HRP (Table 3)
[6] = molecular target: T2, GUCY2C on tumour cells (CW2, CW2-GCC#1, …); assay: cell-based or functional assay
[7] = molecular target: T3, GUCY2C-His蛋白 (human GUCY2C …); assay: ELISA, GUCY2C-His coated, anti-human IgG Fab HRP (Table 9)
[8] = molecular target: T1, GUCY2C-Fc蛋白 (human GUCY2C extracellular …); assay: ELISA, GUCY2C-Fc coated, anti-human IgG Fab HRP (Table 11)
[9] = molecular target: T1, GUCY2C-Fc蛋白 (human GUCY2C extracellular …); assay: ELISA, GUCY2C-Fc coated, anti-human IgG Fab HRP (Table 12)
[10] = molecular target: T3, GUCY2C-His蛋白 (human GUCY2C …); assay: ELISA, GUCY2C-His coated, anti-human IgG Fab HRP (Table 10)
CD3ε-ECD-his [11] = molecular target: T4, CD3ε-ECD-his (UniProt P07766 23-126); assay: ELISA, CD3ε-ECD-his coated at 1 ug/mL, anti-human IgG Fab HRP (Table 14)
T4 construct: extracellular domain; also called CD3ε蛋白
T4 sequence (P07766 other isoform, or with tags, fused parts or gaps): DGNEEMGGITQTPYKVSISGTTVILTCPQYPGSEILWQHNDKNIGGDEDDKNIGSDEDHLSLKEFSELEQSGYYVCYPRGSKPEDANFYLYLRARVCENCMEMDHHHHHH

[12] = molecular target: T2, GUCY2C on tumour cells (CW2, CW2-GCC#1, …); assay: cell-based or functional assay; remark: listed apart in the source
CD3ε-ECD-his [13] = molecular target: T4, CD3ε-ECD-his; assay: ELISA, CD3ε-ECD-his coated; reference SP34
CD3ε-ECD-his [14] = molecular target: T4, CD3ε-ECD-his; assay: ELISA, CD3ε-ECD-his coated at 1 ug/mL (Table 19)
[15] = molecular target: T1, GUCY2C-Fc蛋白 (human GUCY2C extracellular …); assay: ELISA, GUCY2C-Fc coated, anti-human IgG Fab HRP (Table 18)
[16] = molecular target: T3, GUCY2C-His蛋白 (human GUCY2C …); assay: ELISA, GUCY2C-His coated, anti-human IgG Fab HRP (Table 17)

T1 sequence (P25092 24-430 limits assumed): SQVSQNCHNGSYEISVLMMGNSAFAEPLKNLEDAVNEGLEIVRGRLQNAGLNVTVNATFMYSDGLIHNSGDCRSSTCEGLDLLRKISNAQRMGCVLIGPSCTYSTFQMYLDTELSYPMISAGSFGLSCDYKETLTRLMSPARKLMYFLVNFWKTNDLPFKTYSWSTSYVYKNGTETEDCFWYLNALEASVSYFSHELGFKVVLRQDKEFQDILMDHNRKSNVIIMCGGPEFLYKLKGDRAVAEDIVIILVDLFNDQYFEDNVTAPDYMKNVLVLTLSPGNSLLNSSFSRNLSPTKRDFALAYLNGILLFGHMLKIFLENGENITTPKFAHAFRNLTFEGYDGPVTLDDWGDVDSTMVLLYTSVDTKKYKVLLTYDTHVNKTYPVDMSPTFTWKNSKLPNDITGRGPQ

| EC50 [1] [µg/mL] | EC50 [2] [µg/mL] | EC50 [4] [nM] | EC50 [7] [nM] | EC50 [8] [nM] | EC50 [9] [nM] | EC50 [10] [nM] | EC50 (CD3ε-ECD-his [11]) [nM] | Binder | IC50 of T-cell-mediated killing of CW2 cells (CTG, E:T 5:1, 96 h) [6] [nM] | other results |
| --- | --- | --- | --- | --- | --- | --- | --- | --- | --- | --- |
| 0.0307 | 0.137 | – | – | – | – | – | – | 10D7A7 (antibody, V domains shown) VH: QVQLKQSGPGLVQPSQSLSITCTVSGFSLTNYGVHWVRQSPGKGLEWLGVIWSGGRKDYNAAFISRLNITKDNSKSQVFFTMNSLHSDDTAIYYCARHGTYPYWYFALWGAGTSVTISS VL: DIQMTQTTSSLSASLGDRVTISCRASQDISNYLNWYQQKPDGTFKLLVYYTSRLQSGVPSRFSGSGSGTLYSLTISTLEQEDVATYFCQQGKTLPFSFGGGTRLEIK | – | EC50 [3]: 0.8 nM |
| – | – | 0.113 | – | – | – | – | – | 10D7-ch (antibody, V domains shown) VH: QVQLKQSGPGLVQPSQSLSITCTVSGFSLTNYGVHWVRQSPGKGLEWLGVIWSGGRKDYNAAFISRLNITKDNSKSQVFFTMNSLHSDDTAIYYCARHGTYPYWYFALWGAGTSVTISS VL: DIQMTQTTSSLSASLGDRVTISCRASQDISNYLNWYQQKPDGTFKLLVYYTSRLQSGVPSRFSGSGSGTLYSLTISTLEQEDVATYFCQQGKTLPFSFGGGTRLEIKR | – | – |
| 0.018 | 0.365 | – | – | – | – | – | – | 43D11B1D2 (antibody, V domains shown) VH: DVKLVESGGVLVKLGGSLKLSCAASGFTFSGYFMSWVRQTPEKRLELVAAINSDGGSTYYPDTVKGRFTISRDNAKNTLYLQMSSLKSEDTALYYCARLARYLYAMDYWGQGTSVTVSS VL: QIVLTQSPAIMSASPGEKVTMTCSASSSVSYMYWYQQKPGSSPRLLIYDTSNLASGVPVRFSGSGSGTSYSLTISRMEAEDAATYYCQQWTSSSWTFGGGTKLEIK | – | EC50 [5]: 0.99 nM |
| – | – | 5.19 | – | – | – | – | – | 43D11-ch (antibody, V domains shown) VH: DVKLVESGGVLVKLGGSLKLSCAASGFTFSGYFMSWVRQTPEKRLELVAAINSDGGSTYYPDTVKGRFTISRDNAKNTLYLQMSSLKSEDTALYYCARLARYLYAMDYWGQGTSVTVSS VL: QIVLTQSPAIMSASPGEKVTMTCSASSSVSYMYWYQQKPGSSPRLLIYDTSNLASGVPVRFSGSGSGTSYSLTISRMEAEDAATYYCQQWTSSSWTFGGGTKLEIKR | – | – |
| – | – | – | 0.49 | 0.38 | 0.43 | 0.49 | 1.09 | 32H2-SP4VHL-L (bispecific antibody, human IgG1, kappa, also called 结构19) heavy: not shown light: DVVMTQSPLSLPVTLGQPASISCRSSQSLVYNNGNTYLHWYQQRPGQSPRLLIYKVSNRFSGVPDRFSGSGSGTDFTLKISRVEAEDVGVYFCSQSTHVPLTFGQGTKVEIKRTVAAPSVFIFPPSDEQLKSGTASVVCLLNNFYPREAKVQWKVDNALQSGNSQESVTEQDSKDSTYSLSSTLTLSKADYEKHKVYACEVTHQGLSSPVTKSFNRGECGGGGSGGGGSGGGGSEVQLVESGGGLVQPGGSLRLSCAASGFTFNTYAMNWVRQAPGKGLEWVARIRSKYNNYATYYADSVKDRFTISRDDSKNTLYLQMNSLRAEDTAVYYCVRHGNFGNSYVSWFAYWGQGTLVTVSSGGGGSGGGGSGGGGSGGGGSQAVVTQEPSLTVSPGGTVTLTCRSSTGAVTTSNYANWVQQKPGQAPRGLIGGTNKRAPGVPARFSGSLLGGKAALTLSGAQPEDEAEYYCALWYSNLWVFGQGTKVEIK | 0.08 | – |
| 0.00709 | 9.6 | – | – | – | – | – | – | 32H2G1A1 (antibody, V domains shown) VH: EVMLVESGGDLVKPGGSLKLSCAASGFSFRTYAMSWVRQSPEKSLEWVATISSGSSYIYYPDSVKGRFTVFRDNAKNTLYLQMSSLRSEDSAIYYCTCYRMETFEYWGQGTTLTVSS VL: DVVMTQTPLSLPVSLGDEASISCRSSQSLVYNNGNTYLHWYLQKPGQSPKLLIYKVSNRFSGVPDRFSGSGSGTDFTLKISRVEAEDLGVYFCSQSTHVPLTFGAGTKLELK | – | EC50 [3]: 0.26 nM |
| – | – | 0.141 | – | – | – | – | – | 32H2-ch (antibody, V domains shown) VH: EVMLVESGGDLVKPGGSLKLSCAASGFSFRTYAMSWVRQSPEKSLEWVATISSGSSYIYYPDSVKGRFTVFRDNAKNTLYLQMSSLRSEDSAIYYCTCYRMETFEYWGQGTTLTVSS VL: DVVMTQTPLSLPVSLGDEASISCRSSQSLVYNNGNTYLHWYLQKPGQSPKLLIYKVSNRFSGVPDRFSGSGSGTDFTLKISRVEAEDLGVYFCSQSTHVPLTFGAGTKLELKR | – | – |
| – | – | – | 1.86 | 1 | 1.19 | 2.09 | 0.59 | SP4VHL-32H2 (bispecific antibody, human IgG1, kappa, The anti-CD3 scFv (VH-L-VL of humanized SP34) sits at the N-terminus of the heavy chain; also called 结构2) heavy: not shown light: DVVMTQSPLSLPVTLGQPASISCRSSQSLVYNNGNTYLHWYQQRPGQSPRLLIYKVSNRFSGVPDRFSGSGSGTDFTLKISRVEAEDVGVYFCSQSTHVPLTFGQGTKVEIKRTVAAPSVFIFPPSDEQLKSGTASVVCLLNNFYPREAKVQWKVDNALQSGNSQESVTEQDSKDSTYSLSSTLTLSKADYEKHKVYACEVTHQGLSSPVTKSFNRGEC | 0.46 | IC50 of T-cell-mediated killing of T84 cells [12]: 0.004 nM; fold weaker affinity than SP34 (CD3ε-ECD-his [13]): ~5 fold; EC50 (CD3ε-ECD-his [14]): 0.792 nM; EC50 [15]: 2.83 nM; EC50 [16]: 1.84 nM |
| – | – | – | 35.5 | 5.08 | 1.04 | 30.1 | 6.12 | 32H2Fab-SP4VHL (bispecific antibody, also called 32H2Fab-SPVHL; 结构10) heavy: EVQLVESGGGLVKPGGSLRLSCAASGFSFRTYAMSWVRQAPGKSLEWVATISSGSSYIYYPDSVKGRFTVSRDNAKNSLYLQMNSLRAEDTAVYYCTCYRMETFEYWGQGTLVTVSSASTKGPSVFPLAPSSKSTSGGTAALGCLVKDYFPEPVTVSWNSGALTSGVHTFPAVLQSSGLYSLSSVVTVPSSSLGTQTYICNVNHKPSNTKVDKKVEPKSCGGGGSGGGGSGGGGSEVQLVESGGGLVQPGGSLRLSCAASGFTFNTYAMNWVRQAPGKGLEWVARIRSKYNNYATYYADSVKDRFTISRDDSKNTLYLQMNSLRAEDTAVYYCVRHGNFGNSYVSWFAYWGQGTLVTVSSGGGGSGGGGSGGGGSGGGGSQAVVTQEPSLTVSPGGTVTLTCRSSTGAVTTSNYANWVQQKPGQAPRGLIGGTNKRAPGVPARFSGSLLGGKAALTLSGAQPEDEAEYYCALWYSNLWVFGQGTKVEIK light: DVVMTQSPLSLPVTLGQPASISCRSSQSLVYNNGNTYLHWYQQRPGQSPRLLIYKVSNRFSGVPDRFSGSGSGTDFTLKISRVEAEDVGVYFCSQSTHVPLTFGQGTKVEIKRTVAAPSVFIFPPSDEQLKSGTASVVCLLNNFYPREAKVQWKVDNALQSGNSQESVTEQDSKDSTYSLSSTLTLSKADYEKHKVYACEVTHQGLSSPVTKSFNRGEC | 51 | IC50 of T-cell-mediated killing of T84 cells [12]: 1.25 nM |
| – | – | – | 0.29 | 0.24 | 0.33 | 0.23 | 0.37 | 32H2CH1-SP4VHL (bispecific antibody, also called 结构7) heavy: not shown light: DVVMTQSPLSLPVTLGQPASISCRSSQSLVYNNGNTYLHWYQQRPGQSPRLLIYKVSNRFSGVPDRFSGSGSGTDFTLKISRVEAEDVGVYFCSQSTHVPLTFGQGTKVEIKRTVAAPSVFIFPPSDEQLKSGTASVVCLLNNFYPREAKVQWKVDNALQSGNSQESVTEQDSKDSTYSLSSTLTLSKADYEKHKVYACEVTHQGLSSPVTKSFNRGEC | 0.05 | fold weaker affinity than SP34 (CD3ε-ECD-his [13]): ~2 fold; EC50 (CD3ε-ECD-his [14]): 0.309 nM; EC50 [15]: 0.521 nM; EC50 [16]: 0.188 nM |
